In publication PMC8629787 (Cellular and Molecular Life Sciences: CMLS, 2021):

Target: the molecule itself
Assay: SEC

B1: BambL, fucose-binding lectin of Burkholderia ambifaria (recombinant, unlabelled) (natural protein)
chain: not shown
Which “stoichiometry N” value does the source give for B1 here?
Its value is 3.
